The numbers were not newly measured in PMC6440808, which cites them from elsewhere.

Like-named read-outs stand apart in the source and are kept apart here.

The target in data set [1] is C4b (Homo sapiens) (UniProt P0C0L4).
For data set [2] the target is unchanged. The source holds these as a separate data set.

Chain of UniProt P0C0L4 (P0C0L4 20-1744, chain 1 of 2): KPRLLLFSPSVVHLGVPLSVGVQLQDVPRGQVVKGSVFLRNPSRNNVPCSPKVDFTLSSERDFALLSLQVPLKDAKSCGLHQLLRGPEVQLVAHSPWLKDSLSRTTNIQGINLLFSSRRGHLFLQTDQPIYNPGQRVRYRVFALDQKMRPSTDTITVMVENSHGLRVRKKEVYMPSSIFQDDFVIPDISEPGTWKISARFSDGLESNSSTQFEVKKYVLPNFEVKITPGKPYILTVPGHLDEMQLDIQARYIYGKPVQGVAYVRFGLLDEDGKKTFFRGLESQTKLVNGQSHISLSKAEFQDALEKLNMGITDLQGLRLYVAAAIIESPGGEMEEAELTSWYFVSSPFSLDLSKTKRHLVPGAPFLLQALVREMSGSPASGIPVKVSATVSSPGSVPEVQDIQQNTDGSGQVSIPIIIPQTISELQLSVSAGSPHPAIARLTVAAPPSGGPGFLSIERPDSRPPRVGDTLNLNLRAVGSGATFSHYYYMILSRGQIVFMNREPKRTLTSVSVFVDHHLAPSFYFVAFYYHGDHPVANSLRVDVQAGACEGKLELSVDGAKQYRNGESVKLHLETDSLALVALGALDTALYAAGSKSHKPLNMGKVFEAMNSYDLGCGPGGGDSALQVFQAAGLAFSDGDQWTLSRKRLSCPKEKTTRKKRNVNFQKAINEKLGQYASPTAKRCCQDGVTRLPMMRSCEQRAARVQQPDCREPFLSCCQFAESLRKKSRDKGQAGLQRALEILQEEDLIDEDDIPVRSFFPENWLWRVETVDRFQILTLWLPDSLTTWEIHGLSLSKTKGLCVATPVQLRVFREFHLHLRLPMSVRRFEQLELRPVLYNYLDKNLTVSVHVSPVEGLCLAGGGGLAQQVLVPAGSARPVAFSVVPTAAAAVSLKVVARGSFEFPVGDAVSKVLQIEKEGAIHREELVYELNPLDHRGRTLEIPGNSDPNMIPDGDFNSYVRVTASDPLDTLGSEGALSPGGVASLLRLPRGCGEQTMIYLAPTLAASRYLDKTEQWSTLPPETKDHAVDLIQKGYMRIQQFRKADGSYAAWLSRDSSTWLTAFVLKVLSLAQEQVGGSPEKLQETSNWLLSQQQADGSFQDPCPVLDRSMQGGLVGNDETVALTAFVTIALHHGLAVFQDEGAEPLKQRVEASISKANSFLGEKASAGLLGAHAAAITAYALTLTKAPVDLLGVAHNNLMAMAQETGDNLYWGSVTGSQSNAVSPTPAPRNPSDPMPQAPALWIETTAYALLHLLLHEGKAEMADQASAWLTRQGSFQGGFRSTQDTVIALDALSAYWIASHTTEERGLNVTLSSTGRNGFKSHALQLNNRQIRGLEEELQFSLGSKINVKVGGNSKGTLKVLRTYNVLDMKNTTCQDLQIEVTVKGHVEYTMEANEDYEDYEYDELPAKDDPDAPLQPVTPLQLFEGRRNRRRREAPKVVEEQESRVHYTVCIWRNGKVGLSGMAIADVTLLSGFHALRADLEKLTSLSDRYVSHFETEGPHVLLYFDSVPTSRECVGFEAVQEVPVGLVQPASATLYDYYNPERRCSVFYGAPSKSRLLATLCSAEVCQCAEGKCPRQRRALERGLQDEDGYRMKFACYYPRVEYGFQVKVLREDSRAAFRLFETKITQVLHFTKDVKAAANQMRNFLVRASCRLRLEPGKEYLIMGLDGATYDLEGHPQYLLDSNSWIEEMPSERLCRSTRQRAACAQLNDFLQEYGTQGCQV
Chain of UniProt P0C0L4 (P0C0L5 20-1744, chain 2 of 2, further chain): as the sequence (P0C0L4 20-1744, chain 1 of 2) above, with A888T, D1054G, P1101L, C1102S, L1105I, D1106H, N1157S, V1188A, L1191R, S1267A counted along it

Take Eap34 domains 3-4 (from UniProt Q99QS1): the Kd with C4b (Homo sapiens) [1] was 0.525 µM.

Consider “Eap domain 3 or 4 (individual) domain 3 / domain 4 (from UniProt Q2FWW1)”, for which, in the data set with C4b (Homo sapiens) [2], the Kd is 40 µM.
